Assay results taken from patent US20220220204A1 (published 2022).
Changes are numbered by the printed parent chain. Where two headings read alike, the source gives them in different places. Blank lines part the entries; values can stand above or below the binder they belong to.

Key:
Assay in all cases: FACS binding
[1] = target: T1, PD-L1 expressed on CHO-K1 cells (UniProt Q9NZQ7 19-290)
[2] = target: T1, PD-L1 expressed on CHO-K1 cells; remark: listed apart in the source
[3] = target: T2, LAG-3 expressed on CHO-K1 cells (UniProt P18627 23-525)
T2 chain: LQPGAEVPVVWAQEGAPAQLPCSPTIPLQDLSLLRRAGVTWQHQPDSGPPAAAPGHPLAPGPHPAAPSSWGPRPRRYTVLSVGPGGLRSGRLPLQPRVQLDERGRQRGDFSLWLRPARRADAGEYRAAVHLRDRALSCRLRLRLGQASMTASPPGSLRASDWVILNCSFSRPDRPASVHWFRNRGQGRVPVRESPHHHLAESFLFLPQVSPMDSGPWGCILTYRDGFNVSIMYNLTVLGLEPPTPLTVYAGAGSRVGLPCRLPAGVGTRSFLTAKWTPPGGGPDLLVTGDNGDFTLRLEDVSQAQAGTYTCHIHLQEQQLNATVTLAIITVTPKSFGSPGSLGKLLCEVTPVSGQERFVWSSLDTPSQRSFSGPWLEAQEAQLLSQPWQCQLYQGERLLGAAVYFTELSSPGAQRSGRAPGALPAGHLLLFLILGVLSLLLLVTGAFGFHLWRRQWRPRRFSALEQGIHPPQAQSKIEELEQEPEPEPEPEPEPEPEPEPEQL

[4] = target: T2, LAG-3 expressed on CHO-K1 cells

T1 sequence (Q9NZQ7 19-290): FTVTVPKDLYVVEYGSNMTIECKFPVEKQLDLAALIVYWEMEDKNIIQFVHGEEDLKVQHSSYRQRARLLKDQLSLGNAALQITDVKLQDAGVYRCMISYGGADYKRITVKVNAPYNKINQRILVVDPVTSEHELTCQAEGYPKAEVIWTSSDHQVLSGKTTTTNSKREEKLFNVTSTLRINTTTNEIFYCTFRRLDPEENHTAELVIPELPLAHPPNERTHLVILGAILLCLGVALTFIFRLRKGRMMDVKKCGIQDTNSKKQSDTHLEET

- EC50 [1]: 0.651 nM
- EC50 [2]: 0.205 nM
- EC50 [3]: 0.0376 nM
B1: PDL1HCv1 (antibody, V domains shown)
VH: EVQLVQSGAEVKKPGASVKVSCKASGYIFTGYGITWVRQAPGQGLEWMGEIFPRRVQTYYSEKFKGRVTMTTDTSTSTAYMELRSLRSDDTAVYYCARDYDPYFALDYWGQGTTVTVSS
VL: DIQMTQSPSSLSASVGDRVTITCRASQDVSTAVDWYQQKPGKAPKLLIYSASYRYTGVPDRFSGSGSGTDFTFTISSLQPEDIATYYCQQHYSIPFTFGQGTKLEIKR

- EC50 [4]: 8.42 nM
- EC50 [1]: 0.311 nM
B2: PDL1HCv5 (antibody, V domains shown)
VH: B1 VH with T72A
VL: B1 VL
